# Measured values taken from patent publication EP4778941A1 (Jiangsu Hengrui Pharmaceuticals Co., Ltd., dated 2025).
# Changes are numbered by the printed parent chain. Names and notes keep the numbering of the source. Where two headings read alike, the source gives them in different places.
# B1: Anti-HER3/MET bispecific antibody 2232-01 (A13-A) (bispecific antibody, human IgG1, kappa)
# heavy 1: not shown
# light 1: DIQMTQSPSSVSASVGDRVTITCRASQGINTWLAWYQQKPGKAPKLLIYAASSLKSGVPSRFSGSGSGADFTLTISSLQPEDFATYYCQQANSFPLTFGGGTKVEIKGGGGSGIPPKIECLPIDISIDEGKVLTVASAFTGEPTPEVTWSTGGRKIHSQEQGRFHIENTDDSTTLTIKDVQKQDGGLYTLTLRNEFGSDSATVNIHIRSI
# heavy 2: QVQLVQSGGGLVQPGRSLRLSCAASGFTFDDYAMHWVRQAPGKGLEWVSGISWNSGSIGYADSVKGRFTISRDNAKNSLYLQMNSLRAEDTALYYCAKEGLPGLDYWGQGTLVTVSSASTKGPSVFPLAPSSKSTSGGTAALGCLVKDYFPEPVTVSWNSGALTSGVHTFPAVLQSSGLYSLSSVVTVPSSSLGTQTYICNVNHKPSNTKVDKKVEPKSCDKTHTCPPCPAPELLGGPSVFLFPPKPKDTLMISRTPEVTCVVVDVSHEDPEVKFNWYVDGVEVHNAKTKPREEQYNSTYRVVSVLTVLHQDWLNGKEYKCKVSNKALPAPIEKTISKAKGQPREPQVCTLPPSREEMTKNQVSLSCAVKGFYPSDIAVEWESNGQPENNYKTTPPVLDSDGSFFLVSKLTVDKSRWQQGNVFSCSVMHEALHNHYTQKSLSLSPGK
# light 2: DIQMTQSPSSLSASIGDRATITCRASQHVGTYLNWYQQKPGKTPKLLISGAANLQSGVPSRFSGSGSGTDFTLTISSLQPEDFATYYCQQSYNTPPFSFGQGTKVEIKRTVAAPSVFIFPPSDEQLKSGTASVVCLLNNFYPREAKVQWKVDNALQSGNSQESVTEQDSKDSTYSLSSTLTLSKADYEKHKVYACEVTHQGLSSPVTKSFNRGEC
# notes: Four chains: H1 = A13 VH-GGGGS-Obscurin-O chain-IgG1 Fc1 (S354C/T366W); L1 = A13 VL-GGGGS-Titin-T chain; H2 = antibody A VH-CH1-IgG1 Fc2 (Y349C/T366S/L368A/Y407V); L2 = antibody A VL-CL
# B2: Anti-HER3 antibody A (antibody, human IgG1, kappa, V domains shown)
# VH: QVQLVQSGGGLVQPGRSLRLSCAASGFTFDDYAMHWVRQAPGKGLEWVSGISWNSGSIGYADSVKGRFTISRDNAKNSLYLQMNSLRAEDTALYYCAKEGLPGLDYWGQGTLVTVSS
# VL: DIQMTQSPSSLSASIGDRATITCRASQHVGTYLNWYQQKPGKTPKLLISGAANLQSGVPSRFSGSGSGTDFTLTISSLQPEDFATYYCQQSYNTPPFSFGQGTKVEIKR
# B3: Naked antibody of the control antibody U3-1402 (U3-1402 Ab) (antibody, human IgG1, kappa, V domains shown)
# VH: QVQLQQWGAGLLKPSETLSLTCAVYGGSFSGYYWSWIRQPPGKGLEWIGEINHSGSTNYNPSLKSRVTISVETSKNQFSLKLSSVTAADTAVYYCARDKWTWYFDLWGRGTLVTVSS
# VL: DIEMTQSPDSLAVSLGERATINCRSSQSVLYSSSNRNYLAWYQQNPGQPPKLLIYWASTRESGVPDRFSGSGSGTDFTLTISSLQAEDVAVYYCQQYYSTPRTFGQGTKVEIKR
# notes: Anti-HER3 control
# B4: Anti-HER3/MET antibody-drug conjugate ADC-5 (bispecific antibody, human IgG1, kappa)
# heavy 1: not shown
# light 1: B1 light 1 with N30S, A69T
# heavy 2: B1 heavy 2
# light 2: B1 light 2 with T94V
# modifications: compound 9-A on reduced cysteines, positions not given; compound 9-A (exatecan derivative linker-drug) on reduced cysteines, positions not given; average DAR 5.87 for the whole molecule
# Assays:
# [1] = biological target: T1, Human MET protein on the cell surface (human, UniProt P08581 25-1390); experiment: FACS on NCI-H1703 cells (MET single-positive)
# T1 construct: whole, on cells; also called MET single-positive cells (NCI-H1975, NCI-H1703)
# T1 sequence (P08581 25-1390): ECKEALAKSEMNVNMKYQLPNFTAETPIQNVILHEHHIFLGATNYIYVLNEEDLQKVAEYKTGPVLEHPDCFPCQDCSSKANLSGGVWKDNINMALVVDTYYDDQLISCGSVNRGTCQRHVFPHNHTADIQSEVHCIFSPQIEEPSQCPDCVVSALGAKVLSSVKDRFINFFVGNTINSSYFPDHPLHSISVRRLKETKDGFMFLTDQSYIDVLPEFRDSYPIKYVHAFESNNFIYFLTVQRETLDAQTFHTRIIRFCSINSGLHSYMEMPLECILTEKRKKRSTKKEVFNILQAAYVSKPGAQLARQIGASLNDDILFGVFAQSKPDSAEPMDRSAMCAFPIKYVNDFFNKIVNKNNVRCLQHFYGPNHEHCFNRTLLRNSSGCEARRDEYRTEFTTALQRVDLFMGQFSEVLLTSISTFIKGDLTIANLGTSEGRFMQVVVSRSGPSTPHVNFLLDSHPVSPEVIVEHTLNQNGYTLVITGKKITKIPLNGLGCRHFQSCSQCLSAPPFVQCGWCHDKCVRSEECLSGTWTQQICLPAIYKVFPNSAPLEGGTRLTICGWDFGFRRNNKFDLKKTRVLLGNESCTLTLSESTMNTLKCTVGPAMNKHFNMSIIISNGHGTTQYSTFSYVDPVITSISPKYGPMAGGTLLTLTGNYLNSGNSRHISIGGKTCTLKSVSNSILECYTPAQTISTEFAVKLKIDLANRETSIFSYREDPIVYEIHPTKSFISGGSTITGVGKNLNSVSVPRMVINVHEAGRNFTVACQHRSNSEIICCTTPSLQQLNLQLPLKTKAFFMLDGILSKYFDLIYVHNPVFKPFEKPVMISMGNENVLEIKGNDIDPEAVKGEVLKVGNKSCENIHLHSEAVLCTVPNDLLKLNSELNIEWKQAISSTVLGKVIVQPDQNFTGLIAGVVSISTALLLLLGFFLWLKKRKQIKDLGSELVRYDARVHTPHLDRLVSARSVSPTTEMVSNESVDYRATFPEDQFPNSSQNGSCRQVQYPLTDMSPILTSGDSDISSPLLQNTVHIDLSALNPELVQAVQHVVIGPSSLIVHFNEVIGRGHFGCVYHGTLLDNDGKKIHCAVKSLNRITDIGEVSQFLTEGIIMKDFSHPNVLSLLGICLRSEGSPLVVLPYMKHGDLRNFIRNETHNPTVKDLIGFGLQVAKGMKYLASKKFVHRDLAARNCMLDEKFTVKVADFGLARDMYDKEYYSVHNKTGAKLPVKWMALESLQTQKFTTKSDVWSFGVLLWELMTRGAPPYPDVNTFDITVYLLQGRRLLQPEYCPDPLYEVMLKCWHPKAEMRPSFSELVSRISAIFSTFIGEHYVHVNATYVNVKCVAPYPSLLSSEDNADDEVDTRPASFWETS
# [2] = biological target: T1, Human MET protein on the cell surface; experiment: cell-based or functional assay
# [3] = biological target: T2, Human HER3 protein on the cell surface (human, UniProt P21860 20-1342); experiment: cell-based or functional assay
# [4] = biological target: T3, Human HER3 and MET proteins together on HER3/MET double-positive cells (human, UniProt P21860 20-1342; P08581 25-1390); experiment: FACS on HCC827 Osimertinib-resistant cells (HER3/MET double-positive)
# T3 construct: whole, on cells; Used as target for the bispecific molecules and the isotype control on double-positive cells; monospecific antibodies on these cells are written against their own target; also called HER3/MET antigen on the cell surface; HCC827 Osimertinib-resistant cell strain
# [5] = biological target: T3, Human HER3 and MET proteins together on …; experiment: cell-based or functional assay
# [6] = biological target: T3, Human HER3 and MET proteins together on …; experiment: cell-based or functional assay; remark: listed apart in the source
# [7] = biological target: T3, Human HER3 and MET proteins together on …; experiment: cell-based or functional assay; remark: listed apart in the source
# [8] = biological target: T2, Human HER3 protein on the cell surface; experiment: FACS on MDA-MB-453 cells (HER3 single-positive)
# [9] = biological target: T4, His-tagged human HER3 antigen (human, UniProt P21860 20-643); experiment: SPR, Biacore 8K; antibody captured, His-tagged human HER3 antigen 6.25-400 nM as analyte; 1:1 Langmuir
# T4 construct: Soluble antigen used as analyte in SPR; not shown: His tag
# [10] = biological target: T2, Human HER3 protein on the cell surface; experiment: FACS on HCC827 Osimertinib-resistant cells (HER3/MET double-positive)
# [11] = biological target: T2, Human HER3 protein on the cell surface; experiment: cell-based or functional assay; remark: listed apart in the source
# [12] = biological target: T2, Human HER3 protein on the cell surface; experiment: cell-based or functional assay; remark: listed apart in the source
# [13] = biological target: T5, His-tagged human MET antigen (human, UniProt P08581 25-932); experiment: SPR, Biacore 8K, protein A chip; ADC captured, His-tagged antigen 6.25-400 nM as analyte; 1:1 Langmuir
# T5 construct: Soluble antigen used as analyte in SPR; not shown: His tag
# T5 sequence (P08581 25-932 limits assumed): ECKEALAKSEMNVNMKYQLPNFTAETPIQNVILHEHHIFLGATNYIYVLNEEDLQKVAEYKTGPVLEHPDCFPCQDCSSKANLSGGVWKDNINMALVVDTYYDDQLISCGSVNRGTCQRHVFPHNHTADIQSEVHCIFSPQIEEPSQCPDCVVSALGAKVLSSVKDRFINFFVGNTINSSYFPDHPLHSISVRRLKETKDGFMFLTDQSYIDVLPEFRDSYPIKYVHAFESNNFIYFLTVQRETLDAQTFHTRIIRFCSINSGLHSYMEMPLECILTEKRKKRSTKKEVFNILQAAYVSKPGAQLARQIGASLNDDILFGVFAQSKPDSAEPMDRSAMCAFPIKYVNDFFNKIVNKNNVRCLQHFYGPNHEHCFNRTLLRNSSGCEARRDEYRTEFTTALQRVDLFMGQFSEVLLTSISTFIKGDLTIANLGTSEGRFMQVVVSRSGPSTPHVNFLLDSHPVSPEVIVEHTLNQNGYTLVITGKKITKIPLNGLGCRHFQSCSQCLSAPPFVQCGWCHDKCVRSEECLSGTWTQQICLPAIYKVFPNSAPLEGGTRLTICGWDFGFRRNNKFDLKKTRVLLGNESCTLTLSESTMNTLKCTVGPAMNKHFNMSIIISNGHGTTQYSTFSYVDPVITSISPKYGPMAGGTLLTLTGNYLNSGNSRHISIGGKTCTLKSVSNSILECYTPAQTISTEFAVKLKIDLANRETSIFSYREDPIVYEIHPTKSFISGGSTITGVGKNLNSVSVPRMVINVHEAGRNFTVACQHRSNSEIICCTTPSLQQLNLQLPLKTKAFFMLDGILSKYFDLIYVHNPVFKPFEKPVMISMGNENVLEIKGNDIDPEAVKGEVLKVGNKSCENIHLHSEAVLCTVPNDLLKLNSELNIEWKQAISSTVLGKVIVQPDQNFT
# [14] = biological target: T4, His-tagged human HER3 antigen; experiment: as above
binder,measurement,setting,value
B1,EC50,[1],1.03 nM
same,Maximum fluorescence value,[1],2430
same,Minimum cell viability (%),[2],0.6%
same,Minimum cell viability (%),[3],21.7%
same,EC50,[4],0.52 nM
same,Maximum fluorescence value,[4],2470
same,Minimum cell viability (%),[5],12.4%
same,Minimum cell viability (%),[6],24.7%
same,Endocytosis ratio at 0 h (FACS),[7],0%
same,Endocytosis ratio at 0.5 h (FACS),[7],67.9%
same,Endocytosis ratio at 2 h (FACS),[7],83.2%
same,Endocytosis ratio at 6 h (FACS),[7],84.1%
same,EC50,[8],2.72 nM
same,Maximum fluorescence value,[8],1950
B2,Maximum fluorescence value,[1],81
same,Minimum cell viability (%),[2],77.8%
same,Minimum cell viability (%),[3],28.5%
same,Kd,[9],14.5 nM
same,koff,[9],0.0103 s⁻¹
same,kon,[9],707000 M⁻¹ s⁻¹
same,EC50,[10],2.06 nM
same,Maximum fluorescence value,[10],1020
same,Minimum cell viability (%),[11],63.8%
same,Endocytosis ratio at 0 h (FACS),[12],0%
same,Endocytosis ratio at 0.5 h (FACS),[12],55.5%
same,Endocytosis ratio at 2 h (FACS),[12],80%
same,Endocytosis ratio at 6 h (FACS),[12],82.2%
same,EC50,[8],0.48 nM
same,Maximum fluorescence value,[8],1860
B3,Maximum fluorescence value,[1],90
same,Minimum cell viability (%),[2],72.9%
same,Minimum cell viability (%),[3],63.9%
same,EC50,[10],0.46 nM
same,Maximum fluorescence value,[10],1240
same,Minimum cell viability (%),[11],73.6%
same,EC50,[8],0.25 nM
same,Maximum fluorescence value,[8],1990
B4,Kd,[13],13.1 nM
same,koff,[13],0.000872 s⁻¹
same,kon,[13],66500 M⁻¹ s⁻¹
same,Kd,[14],14.3 nM
same,koff,[14],0.00721 s⁻¹
same,kon,[14],505000 M⁻¹ s⁻¹
